Key:
[1] = target: ΔVP1, Murine polyomavirus VP1 with the putative nuclear localization signal deleted (Murine polyomavirus) (UniProt P03090); assay: SEC-MALS
[2] = target: the molecule itself; assay: SEC-MALS

ΔVP1, Murine polyomavirus VP1 with the putative nuclear localization signal deleted (from UniProt P03090 1-383) (natural protein)
stoichiometry N [1]: 72 pentamers

B1: wild-type Murine polyomavirus VP1 (natural protein, UniProt P03090 1-383, looked up)
chain: MAPKRKSGVSKCETKCTKACPRPAPVPKLLIKGGMEVLDLVTGPDSVTEIEAFLNPRMGQPPTPESLTEGGQYYGWSRGINLATSDTWIPRNNTLPTWSMAKSSFPCLNEDLTCDTLQMWEAVSVKTEVVGSGSLLDVHGFNKTHRFSKHKGNSTPVEGSQYHVFAGGGEPLDLQGLVTDARTKYKEEGVVTIKTITKKDMVNKDQVLNPISKAKLDKDGMYPVEIWHPDPAKNENTRYFGNYTGGTTAPPVLQFTNTLTTVLLDENGVGPLCKGEGLYLSCVDIMGWRVTRNYVSSLEKGFPRYFKITLRKRWVKNPYPMASLISSLFNNMLPQVQGQPMEGENTQVEEVRVYDGTEPVPGDPDMTRYVDRFGKTKTVFPGN
stoichiometry N [2]: ~72 pentamers
